Where two headings read alike, the source gives them in different places. One block for each compound: values may come before it.
Assays:
human SST2 [1] = target: T1, human SST2 (Homo sapiens, UniProt P30874); assay: Competition binding assay with 125I-SS-14 on membranes of HEK-SST2 cells; conditions: 125I-SS-14 radioligand
T1 construct: expressed in transfected cells; host or cells: HEK cells (HEK-SST2), stably transfected
Method: Human Embryonic Kidney (HEK) cells were stably transfected with plasmids encoding the human SST2 and SST5 (HEK-SST2 and HEK-SST5) and cultivated as previously described. […] Nontransfected HEK cells were used as negative control.
Binding assays were performed as described previously.

[2] = system: dual SST2- and SST5-expressing xenografts; conditions: use of basic amino acids; reference not given; cited from earlier work
human SST2 [3] = target: T1, human SST2; parameters: method as in PMID 32757150; conditions: HEK-SST2 membranes, 125I-SS-14 radioligand; cited from earlier work

T1 sequence (P30874 whole entry): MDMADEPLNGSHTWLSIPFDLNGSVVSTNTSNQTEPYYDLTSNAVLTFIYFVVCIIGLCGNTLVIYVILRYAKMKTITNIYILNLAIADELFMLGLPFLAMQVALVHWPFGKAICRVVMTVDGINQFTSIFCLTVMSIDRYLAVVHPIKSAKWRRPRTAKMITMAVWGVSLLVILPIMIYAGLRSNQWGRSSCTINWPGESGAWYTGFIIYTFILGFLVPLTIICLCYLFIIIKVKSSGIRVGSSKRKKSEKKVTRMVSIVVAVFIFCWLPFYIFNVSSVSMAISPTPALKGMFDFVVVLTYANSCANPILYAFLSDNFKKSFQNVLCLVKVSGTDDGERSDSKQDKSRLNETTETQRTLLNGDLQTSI

IC50 (human SST2 [1]): 0.37 nM
Compound: CC(C)[C@@H]1NC(=O)[C@H](CCCCN)NC(=O)[C@@H](Cc2c[nH]c3ccccc23)NC(=O)[C@H](Cc2ccc(O)c(I)c2)NC(=O)[C@@H](NC(=O)[C@@H](Cc2ccc(N)c(I)c2)NC(=O)CN2CCN(CC(=O)O)CCN(CC(=O)O)CCN(CC(=O)O)CC2)CSSC[C@@H](C(=O)N[C@H](C(N)=O)[C@@H](C)O)NC1=O [^natLu-DOTA-ST8950, metal not drawn]

Compound: [^177Lu]Lu-DOTA-TATE
Kidney uptake reduction with basic amino acids [2]: 40%

Compound: ^natGa-DOTA-NOC: natGa complex of DOTA-NOC, values from
IC50 (human SST2 [3]): 0.7 nM
